Source: PMC11138481

How the values were obtained:
[1] = target: GAS41 YEATS domain (residues 11–150) (human) (UniProt O95619); assay: MST
[2] = target: Flag-GAS41 H43S (human) (UniProt O95619); assay: co-IP
Flag-GAS41 H43S (human), sequence (O95619 whole entry H43S): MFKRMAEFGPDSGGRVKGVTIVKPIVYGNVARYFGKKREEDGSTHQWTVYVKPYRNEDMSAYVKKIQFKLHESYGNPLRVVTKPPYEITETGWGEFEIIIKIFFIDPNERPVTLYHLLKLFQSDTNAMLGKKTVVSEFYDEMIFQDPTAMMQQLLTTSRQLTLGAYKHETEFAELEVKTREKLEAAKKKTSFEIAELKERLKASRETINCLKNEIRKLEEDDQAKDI

GAS41 YEATS domain (residues 11–150) (human), sequence (O95619 11-150): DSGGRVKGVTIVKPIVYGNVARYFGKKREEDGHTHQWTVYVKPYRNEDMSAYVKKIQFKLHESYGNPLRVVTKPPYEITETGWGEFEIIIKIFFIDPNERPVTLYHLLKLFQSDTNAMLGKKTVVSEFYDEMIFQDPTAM

Kd [1]	percent reduction of binding against Flag-GAS41 wt [2]	Substance
229 nM		H3K27ac nucleosome core particle (from UniProt P04908 1-130; P62805 1-103) (complex)
158 nM		H3K27cr nucleosome core particle (from UniProt P04908 1-130; P62805 1-103) (complex)
	> 60%	nucleosomal histone H3K27cr (endogenous) (from UniProt P68431 1-136) (natural protein)
913 nM		unmodified nucleosome core particle (from UniProt P04908 1-130; P62805 1-103) (complex)
